How the values were obtained:
[1] = Lytic activity of purified recombinant (baculovirus) perforin; format: biochemical; conditions: baculovirus expression system
From the text: Perforin cDNA was cloned into the pFastBac vector and overexpressed in Sf-21 cells cultured in SF900-II SFM medium using a Bac-to-Bac kit (Invitrogen) and perforin was purified, all according to the manufacturer's instructions. Small amounts of recombinant WT and the G428E perforin mutant protein were obtained.

[2] = Storage stability of purified recombinant perforin at 4° C.; conditions: purified recombinant human perforin, storage at 4° C.

B1: recombinant human A91V: recombinant human A91V perforin from the baculovirus expression system (protein, UniProt P14222 22-555, looked up, variant A91V)
Perforin-1: PCHTAARSECKRSHKFVPGAWLAGEGVDVTSLRRSGSFPVDTQRFLRPDGTCTLCENALQEGTLQRLPLVLTNWRAQGSGCQRHVTRAKVSSTEAVARDAARSIRNDWKVGLDVTPKPTSNVHVSVAGSHSQAANFAAQKTHQDQYSFSTDTVECRFYSFHVVHTPPLHPDFKRALGDLPHHFNASTQPAYLRLISNYGTHFIRAVELGGRISALTALRTCELALEGLTDNEVEDCLTVEAQVNIGIHGSISAEAKACEEKKKKHKMTASFHQTYRERHSEVVGGHHTSINDLLFGIQAGPEQYSAWVNSLPGSPGLVDYTLEPLHVLLDSQDPRREALRRALSQYLTDRARWRDCSRPCPPGRQKSPRDPCQCVCHGSAVTTQDCCPRQRGLAQLEVTFIQAWGLWGDWFTATDAYVKLFFGGQELRTSTVWDNNNPIWSVRLDFGDVLLATGGPLRLQVWDQDSGRDDDLLGTCDQAPKSGSHEVRCNLNHGHLKFRYHARCLPHLGGGTCLDYVPQMLLGEPPGNRSGAVW
modifications: baculovirus-expressed
notes: recombinant human A91V perforin from the baculovirus expression system
[1]
  cytolytic activity of recombinant protein relative to WT perforin: < 10 % of WT
[2]
  stability of lytic activity on storage: undetectable levels after 48 hours
